Assays:
PACAP38 (human) = assay: cell-based or functional assay
PACAP27 (human) = assay: cell-based or functional assay
Chain of PACAP27 (human) (peptide, as listed by the source): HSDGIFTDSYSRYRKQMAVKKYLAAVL

Chain of PACAP38 (human) (peptide, as listed by the source): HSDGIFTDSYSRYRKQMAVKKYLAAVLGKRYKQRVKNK

Substance: Control IgG4 antibody
- Percentage Tryptase Release upon addition of PACAP38 (1 uM), human mast cells, negative control antibody (PACAP38 (human)): 104%
- Percentage Tryptase Release upon addition of PACAP38 (%), negative control antibody dose 153 uM (PACAP38 (human)): 79.6%
- Percentage Tryptase Release upon addition of PACAP27 (1 uM), human mast cells, negative control antibody (PACAP27 (human)): 110%
- Percentage Tryptase Release upon addition of PACAP27 (%), negative control antibody dose 153 uM (PACAP27 (human)): 94.8%

Source: patent US20200131256A1
